7 molecules from paper PMC2720974, “DNA-binding by Haemophilus influenzae and Escherichia coli YbaB, members of a widely-distributed bacterial protein family” (BMC Microbiology, 2009) can be followed below.

Data set [1] concerns the molecule itself. Kind of data set: SEC; data not shown; Superdex 75 10/300 GL, 200 mM NaCl, 50 mM Tris-HCl pH 7.5, 1% glycerol; 200 ul of about 0.2 mg/ml YbaBHi; mass from a calibration curve of standards.
In data set [2] the target is T1, YbaBHi (Haemophilus influenzae, UniProt P44711 1-109). Kind of data set: EMSA; first step, n=2.09; EMSA: 100 pM biotin-DNA, 50 mM Tris-HCl pH 7.5, 1 mM DTT, protease inhibitor 8 ul/ml, phosphatase inhibitor 2 ul/ml, 10% glycerol, no added salt stated, 20 min, room temperature. To be noted: protein: recombinant; tags: pET15b vector tag, His-Trap purified; chain copies: 2; label: 5' biotin on strand 1; blunt. Background: A gel shift assay detects complexes by their altered migration in electrophoresis.

The target of data set [3] is T2, YbaBEc (Escherichia coli, UniProt P0A8B5 1-109).
T2 sequence: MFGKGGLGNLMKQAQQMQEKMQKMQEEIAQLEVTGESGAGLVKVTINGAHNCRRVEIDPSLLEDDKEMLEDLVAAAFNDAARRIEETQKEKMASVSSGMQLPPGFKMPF
Kind of data set: EMSA; first step, apparent monomer-equivalent; EMSA: 100 pM biotin-DNA, 50 mM Tris-HCl pH 7.5, 1 mM DTT, protease inhibitor 8 ul/ml, phosphatase inhibitor 2 ul/ml, 10% glycerol, no added salt stated, 20 min, room temperature. To be noted: protein: recombinant; tags: pET200-TOPO vector tag, His-Trap purified; chain copies: 2; label: 5' biotin on strand 1; blunt.

In data set [4] the target is T1, YbaBHi. Described as above. The note with it: protein: recombinant; tags: pET15b vector tag, His-Trap purified; chain copies: 2; label: 5' biotin on strand 1; blunt.
Data set [5] deals with T2, YbaBEc. Kind of data set: EMSA; first step, n=1.93; EMSA: 100 pM biotin-DNA, 50 mM Tris-HCl pH 7.5, 1 mM DTT, protease inhibitor 8 ul/ml, phosphatase inhibitor 2 ul/ml, 10% glycerol, no added salt stated, 20 min, room temperature. To be noted: protein: recombinant; tags: pET200-TOPO vector tag, His-Trap purified; chain copies: 2; label: 5' biotin on strand 1; blunt.
For data set [6], the target named is T2, YbaBEc. Kind of data set: EMSA; no detectable effect of mutation; EMSA: 100 pM biotin-DNA, 50 mM Tris-HCl pH 7.5, 1 mM DTT, protease inhibitor 8 ul/ml, phosphatase inhibitor 2 ul/ml, 10% glycerol, no added salt stated, 20 min, room temperature. The note with it: protein: recombinant; tags: pET200-TOPO vector tag, His-Trap purified; chain copies: 2; label: 5' biotin on strand 1; blunt.

Data set [7] addresses T1, YbaBHi. Described as above. The note with it: protein: recombinant; tags: pET15b vector tag, His-Trap purified; chain copies: 2; label: 5' biotin on strand 1; blunt.
For the next data set, the target named is T3, EbfC (Borrelia burgdorferi, UniProt O51418 1-99).
T3 sequence: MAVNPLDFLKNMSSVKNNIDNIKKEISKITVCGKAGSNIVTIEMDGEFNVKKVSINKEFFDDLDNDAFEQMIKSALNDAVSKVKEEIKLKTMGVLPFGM
Nature of the data set: EMSA; specific plus nonspecific complex; EMSA: 100 pM biotin-DNA, 50 mM Tris-HCl pH 7.5, 1 mM DTT, protease inhibitor 8 ul/ml, phosphatase inhibitor 2 ul/ml, 10% glycerol, no added salt stated, 20 min, room temperature. To be noted: protein: recombinant; tags: His-Trap purified (His tag implied); chain copies: 2; label: 5' biotin on strand 1; blunt.

The target in data set [8] is T2, YbaBEc. Kind of data set: EMSA; protein at half its Kd; EMSA: 100 pM biotin-DNA, 50 mM Tris-HCl pH 7.5, 1 mM DTT, protease inhibitor 8 ul/ml, phosphatase inhibitor 2 ul/ml, 10% glycerol, no added salt stated, 20 min, room temperature. The note with it: protein: recombinant; tags: pET200-TOPO vector tag, His-Trap purified; chain copies: 2; label: 5' biotin on strand 1; blunt.

In data set [9] the target is T1, YbaBHi. Described as above. The note with it: protein: recombinant; tags: pET15b vector tag, His-Trap purified; chain copies: 2; label: 5' biotin on strand 1; blunt.

B1: Haemophilus influenzae YbaB (natural protein, H. influenzae, UniProt P44711 1-109, looked up)
chain: MFGKGGLGGLMKQAQQMQEKMQKMQEEIAQLEVTGESGAGLVKITINGAHNCRRIDIDPSLMEDDKEMLEDLIAAAFNDAVRRAEELQKEKMASVTAGMPLPPGMKFPF
notes: Purified on a His-Trap column; removal of the tag is not mentioned; also called YbaBHi; HI0442; source: E. coli Rosetta pLysS, purified (His-Trap HP)
In the case of B1, the “stoichiometry N” value in [1] was 2.

B2: b-WT (dsDNA)
DNA 1: TTGTAATGAGTAGTGCATTTGCAATGGAGAGATTTTGGGGAGTTGTTTAAAATTACATTTGCGTTTTGTTAAAATGTAACAGCTGAATGTAACAAAATTATATATTTAAATCTTTGAAATATTGC
DNA 2: GCAATATTTCAAAGATTTAAATATATAATTTTGTTACATTCAGCTGTTACATTTTAACAAAACGCAAATGTAATTTTAAACAACTCCCCAAAATCTCTCCATTGCAAATGCACTACTCATTACAA
B2: the Ka in the data set with YbaBHi [2] was 1.7e+13 M-2; with YbaBEc [5], 1.7e+14 M-2. The Kd amounted to 77 nM with YbaBEc [3] and 240 nM with YbaBHi [4].

B3: b-C20 (dsDNA)
DNA 1: TTGTAATGAGTAGTGCATTTGCAATGGAGAGATTTTGGGGAGTTGTTTAAAATTACATTTGCGTTTTGTTAAAACACAACAGCTGAATGTAAAAAAATTATATATTTAAATCTTTGAAATATTGC
DNA 2: GCAATATTTCAAAGATTTAAATATATAATTTTTTTACATTCAGCTGTTGTGTTTTAACAAAACGCAAATGTAATTTTAAACAACTCCCCAAAATCTCTCCATTGCAAATGCACTACTCATTACAA
Turning to B3, the binding result in the data set with YbaBEc [6] and in the data set with YbaBHi [7] was “binds” throughout.

B4: b-C40 (dsDNA)
DNA 1: TTGTAATGAGTAGTGCATTTGCAATGGAGAGATTTTGGGGAGTTGTTTAAAATTACATTTGCGTTTTGTTAAAACACAACAGCTGAATGTGACAAAATTATATATTTAAATCTTTGAAATATTGC
DNA 2: GCAATATTTCAAAGATTTAAATATATAATTTTGTCACATTCAGCTGTTGTGTTTTAACAAAACGCAAATGTAATTTTAAACAACTCCCCAAAATCTCTCCATTGCAAATGCACTACTCATTACAA
As to B4, the binding result with YbaBEc [6] and in the data set with YbaBHi [7] was “binds” in each case.

B5: b-C50 (dsDNA)
DNA 1: TTGTAATGAGTAGTGCATTTGCAATGGAGAGATTTTGGGGAGTTGTTTAAAATTACATTTGCGTTTTGTTAAAACACAACAGCTGAATGTATCAAAATTATATATTTAAATCTTTGAAATATTGC
DNA 2: GCAATATTTCAAAGATTTAAATATATAATTTTGATACATTCAGCTGTTGTGTTTTAACAAAACGCAAATGTAATTTTAAACAACTCCCCAAAATCTCTCCATTGCAAATGCACTACTCATTACAA
Consider B5, for which the binding result in the data set with YbaBEc [6] and with YbaBHi [7] was “binds” in each case.

B6: b-C2 (dsDNA)
DNA 1: TTGTAATGAGTAGTGCATTTGCAATGGAGAGATTTTGGGGAGTTGTTTAAAATTACATTTGCGTTTTGTTAAAACACAACAGCTGAATGTAACAAAATTATATATTTAAATCTTTGAAATATTGC
DNA 2: GCAATATTTCAAAGATTTAAATATATAATTTTGTTACATTCAGCTGTTGTGTTTTAACAAAACGCAAATGTAATTTTAAACAACTCCCCAAAATCTCTCCATTGCAAATGCACTACTCATTACAA
On to B6, for which the binding result with EbfC, with YbaBEc [8] and in the data set with YbaBHi [9] was “binds” throughout.

B7: b-C30 (dsDNA)
DNA 1: TTGTAATGAGTAGTGCATTTGCAATGGAGAGATTTTGGGGAGTTGTTTAAAATTACATTTGCGTTTTGTTAAAACACAACAGCTGAATGTAACTAAATTATATATTTAAATCTTTGAAATATTGC
DNA 2: GCAATATTTCAAAGATTTAAATATATAATTTAGTTACATTCAGCTGTTGTGTTTTAACAAAACGCAAATGTAATTTTAAACAACTCCCCAAAATCTCTCCATTGCAAATGCACTACTCATTACAA
Consider B7, for which the binding result with YbaBEc [6] and with YbaBHi [7] was “binds” throughout.

A word on the stoichiometry N: it is the number of molecules, sites or subunits per partner or assembly.
